The text below walks through data of publication PMC9333307.

The assay addresses Urtica dioica agglutinin (Urtica dioica (stinging nettle)). Put plainly: ELISA; microwells coated with serial dilutions (1:2 to 1:16) of UDA in PBS at 4°C overnight; blocked with 0.3% skim milk; 0.5 μg.mL recombinant RBD added for 1 h at RT; detected with rabbit anti-his antibodies and HRP-conjugated secondary antibody, TMB, absorbance at 450 nm; wells without UDA as negative control. The arrangement: unit not given here. In general terms: An ELISA detects its analyte on a solid surface through an enzyme-linked reagent.

For the substance “recombinant receptor-binding domain (RBD) of SARS-CoV-2 Spike protein (from UniProt P0DTC2 319-541) (domain or fragment)”, the absorbance at 450 nm is 420.
